{"source": "the DeepSol protein solubility set"}
{"assay": "soluble on expression in E. coli; label from the status in PepcDB or PDB records"}
{"sequence": "MTNPQFAGHPFGTTVTAETLRNTFAPLTQWEDKYRQLIMLGKQLPALPDELKAQAKEIAGCENRVWLGYTVAENGKMHFFGDSEGRIVRGLLAVLLTAVEGKTAAELQAQSPLALFDELGLRAQLSASRSQGLNALSEAIIAATKQV", "soluble on expression in E. coli": "not soluble"}
{"sequence": "MTNSIHEMIRASFKCEDMVKCVLGLKSLDIEAYKALLMHGPQTAEKLGEILNRERSTAYRSLQNLIACGIVYRETRSIESGGYYYEYVAIEPQEMKRMVKKNVDEWYNQMNELIEKMDDKVNALVTRLEDDEAKQK", "soluble on expression in E. coli": "not soluble"}
{"sequence": "MTPDQMRDASLLELFRLEAEAQTQVLNAGLMALERSPTQADQLEACMRAAHSLKGAARIVGLDAGVRVAHVMEDCLVEAQDGRLLLQSEHIDALLQGCDLLLRIGTPPAGDAGWAEGAGREEIDGLVLRLEGLVRSGLPLARAELPATTPGLPEAVPEAPPAASAAASDDNDEEPAGQAGGEQAEERRSRVLRVTAERLDRLLDISSKSLVEFQRIKPLADSLQRLRRLQSSASRALDVVRETVQETALDPQAQAMLGEARQLIGECQQMLVQHIADLDEFAWQGGQRAQVLYDAALASRMRPFADVLSGQARMVRDLGRSLGKQVRLLVEGESTQVDRDVLEKLEAPLTHLLRNAVDHGIEAPETRLAAGKPAEGRITIRARHHAGMLVLELSDDGGGIDLQRLRETVLNRQFATAETVAQLSEEELLAFLFLPGFSMREQVTEVSGRGVGLDAVQHMVRQLRGGVRMEQRQGQGALFHVEVPLTLSVVRSLVVEIGEEAYAFPLAHIERMCELEAEEIVQLEGRQHFWYEGRHVGLVSAAQLLQRPESSRTEGAIPVVVVRDRDAVYGVAVERFVGERTLVVMPLDPRLGKVRDVSAGALLDDGSPVLILDVEDLLHSVGKLLSSGRLERIDRSRRQAGGAQRKRILVVDDSLTVRELERKLLLGRGYDVAVAVDGMDGWNALRSEHFDLLITDIDMPRMDGIELVTLVRRDSRLQSLPVMVVSYKDREEDRRRGLDAGADYYLAKASFHDEALLDAVVVLIGEAQG", "soluble on expression in E. coli": "not soluble"}
{"sequence": "MTPGFPLPKPDVLSRPFWDFAQRGVLSLQRCRHCGDVHFPAAPVCPACLSEQQEWVPASGRGTLFSWCEFHKGYWDSVASLLPYRVAVIKLNEGPLLISNLVDVADCAALRADAPVEVVFRPVSADINLPVFRLRHAY", "soluble on expression in E. coli": "not soluble"}
{"sequence": "MTPYAFTDPRKSELYVVEGDSAGGSAKSGRDSMFQAILPLRGKIINVEKARIDRVLKNTEVQAIITALGTGIHDEFDIGKLRYHKIVLMADADVDGQHISTLLLTLLFRFMRPLIENGHVFLAQPPLYKLKWQRSDPEFAYSDRERDGLLEAGLKAGKKINKEDGIQRYKGLGEMDAKELWETTMDPSVRVLRQVTLDDAAAADELFSILMGEDVDARRSFITRNAKDVRFLDVKLAAALEHHHHHH", "soluble on expression in E. coli": "soluble"}
{"sequence": "MTQANLSETLFKPRFKHPETSTLVRRFNHGAQPPVQSALDGKTIPHWYRMINRLMWIWRGIDPREILDVQARIVMSDAERTDDDLYDTVIGYRGGNWIYEWATQAMVWQQKACTEEDPQLSGRHWLHAATLYNIAAYPHLKGDDLAEQAQALSNRAYEEAAQRLPGTMRQMEFTVPGGAPITGFLHMPKGDGPFPTVLMCGGLDAMQTDYYSLYERYFAPRGIAMLTIDMPSVGFSSKWKLTQDSSLLHQHVLKALPNVPWVDHTRVAAFGFRFGANVAVRLAYLESPRLKAVACLGPVVHTLLSDFKCQQQVPEMYLDVLASRLGMHDASDEALRVELNRYSLKVQGLLGRRCPTPMLSGYWKNDPFSPEEDSRLITSSSADGKLLEIPFNPVYRNFDKGLQEITGWIEKRLC", "soluble on expression in E. coli": "not soluble"}
{"sequence": "MTQKEISIIHPRPSSIVAALYTLRDLNVDVAILHGPPGCSFKHARLLEEDGIHVVTTGLDENGFVFGGHDKLVQVINKSIELFNPKILGVVGTCASMIIGEEMHEAVLEANPDIPVIEVEVHAGYHNNTKGVIFALESALDAGIIDHKEFERQEYLEHHHHHH", "soluble on expression in E. coli": "not soluble"}
